The target of this experiment is T1, HD_(N-TIMP2,V3) bi-specific heterodimer (N-TIMP2 fused by a linker to V3, the engineered soluble …).
T1 construct: flexible linker; Order on the chain: N-TIMP2, linker, V3, human IgG1 Fc, 6xHis; Vector pFUSE-hIgG1e3-Fc1; Glycosylated; also called bi-specific fusion protein; source: HEK293F, transiently transfected, secreted, purified (Ni-NTA, gel filtration); not shown: Fc (human IgG1), C-terminal, kept
Description: BLI; Octet Red; HD_(N-TIMP2,V3) or V3 loaded on Protein A sensors (10 ug/ml, 300 s); IL-17A or MMP-9CAT in solution at 50, 100, 200 nM; 300 s association, 1800-2500 s dissociation; 30 C; PBS, 1% BSA, 0.05% Tween; 1:1 binding model. To be noted: both partners purified. Background: In BLI a coated tip is dipped into the sample, and binding shifts an interference pattern.

B1: MMP-9CAT (soluble MMP-9 catalytic domain) (enzyme)
chain: FQTFEGDLKWHHHNITYWIQNYSEDLPRAVIDDAFARAFALWSAVTPLTFTRVYSRDADIVIQFGVAEHGDGYPFDGKDGLLAHAFPPGPGIQGDAHFDDDELWSLGKGQGYSLFLVAAHEFGHALGLDHSSVPEALMYPMYRFTEGPPLHKDDVNGIRHLY
modifications: Active enzyme, catalytic and structural Zn2+ and Ca2+ (assay buffer has 5 mM CaCl2). Limits are not printed in the text given. Taken by convention from the MMP-9 catalytic domain lacking the …
In general, Kd refers to the concentration at which binding is half-saturated. The low end stands for tighter binding, the high end for weaker binding. The molecule B1 came in with a Kd of 1.65 ± 0.02 nM.
